Experimental findings from patent US20260216242A1 (ALMAC DISCOVERY, published 2026) are described below.

The term EC50 (read off the curve) denotes the concentration that produces a half-maximal response. A higher EC50 (read off the curve) goes with weaker potency. For orientation: koff means a measure of how fast the partners let go of each other. As a reminder, the kon is the rate constant with which the complex forms. High values mean fast association, low ones slow association.

The target of assay [1] is T1, human ALPP on CHO cells (human, UniProt P05187 23-506).
T1 construct: whole, on cells; also called CHO-ALPP
Description: flow cytometry, CHO cells, KDapp. As to the method: (§1) Cell surface binding of test agents to hALPP isoforms was characterized in four CHO-ALPP isoform stably transfected cell lines (CHO-ALPP, CHO-ALPPL2, CHO-ALPI and CHO-ALPL) and the resulting KDapp values determined. Adherent cells were detached from tissue culture flasks by incubating with 0.1% EDTA/PBS solution at 37° C. for ~10 minutes or until cells detached easily. Cells were re-suspended in ice-cold PBS/2% FCS in 15 ml tubes and centrifuged at 1700 rpm for 5 mins at 4° C. Supernatant was removed and the cell pellet re-suspended in PBS/2% FCS. […] Cells were incubated with 100 μl of test agents at a range of concentrations, plus controls for 1 hr on ice. The sample plate was centrifuged at 1700 rpm for 5 mins at 4° C. The supernatant was removed, and a wash performed by re-suspending the cell pellets in 0.25 mL of ice-cold PBS/2% FCS using a multichannel pipette. Samples were again centrifuged at 1700 rpm for 5 min at 4° C. Supernatant was removed and two further washes performed as described. After the final wash and centrifugation step, excess liquid was removed by blotting the plate on tissue paper. Binding of VHH (His6 tagged) agents was determined by adding 100 μl of anti-x6His tag Ab (Abcam) per cell pellet sample as appropriate and incubating on ice for 30 mins. Wash steps were performed as described previously. Fitc-anti-mouse antibody (ThermoFisher) was used to detect binding of the VHH (His6 tagged) agents by incubating with the appropriate samples for 30 min on ice in the dark. Wash steps were performed as described previously. All cell pellets were finally re-suspended in […] of ice-cold PBS/2% FCS and left on ice in the dark prior to analysis on a Merck-Millipore Guava EasyCyte HT or Thermo Fisher Attune N×T flow cytometer.
(A flow cytometer gives signals particle by particle.)

In assay [2] the target is T2, human ALPPL2 on CHO cells (human, UniProt P10696 20-503).
T2 construct: whole, on cells; also called CHO-ALPPL2
The experiment in a line: flow cytometry, CHO cells, KDapp. As to the method: as §1

Assay [3] has as its target T1, human ALPP on CHO cells. The experiment in a line: flow cytometry, CHO cells stably expressing human ALPP; His6-tagged VHH detected with anti-His tag Ab and FITC anti-mouse Ab. As to the method:
(§2) C-terminal His tagged VHH proteins were assessed for ALPP, ALPPL2, ALPI and ALPL cell-surface binding by flow cytometry. Binders encompassing different epitope bins were screened on CHO cells stably expressing ALPP, ALPPL2, ALPI or ALPL. High levels of cell-surface proteins expression were confirmed for each of the cell-lines by flow cytometry.
(§3) Cell surface binding of test agents to hALPP isoforms was characterized in four CHO-ALPP isoform stably transfected cell lines (CHO-ALPP, CHO-ALPPL2, CHO-ALPI and CHO-ALPL) and the resulting KDapp values determined. Adherent cells were detached from tissue culture flasks by incubating with 0.1% EDTA/PBS solution at 37° C. for ~10 minutes or until cells detached easily. Cells were re-suspended in ice-cold PBS/2% FCS in 15 ml tubes and centrifuged at 1700 rpm for 5 mins at 4° C. Supernatant was removed and the cell pellet re-suspended in PBS/2% FCS. […] Cells were incubated with 100 μl of test agents at a range of concentrations, plus controls for 1 hr on ice. The sample plate was centrifuged at 1700 rpm for 5 mins at 4° C. The supernatant was removed, and a wash performed by re-suspending the cell pellets in 0.25 mL of ice-cold PBS/2% FCS using a multichannel pipette. […] Binding of VHH (His6 tagged) agents was determined by adding 100 μl of anti-x6His tag Ab (Abcam) per cell pellet sample as appropriate and incubating on ice for 30 mins. […]

The target in assay [4] is T2, human ALPPL2 on CHO cells. The experiment in a line: flow cytometry, CHO cells stably expressing human ALPPL2; His6-tagged VHH detected with anti-His tag Ab and FITC anti-mouse Ab. How it is done: as §2, §3
Assay [5] deals with T3, Human ALPPL2 (leucine zipper) (human).
T3 construct: Whole entry: fused with a cysteine stabilised leucine zipper and His tag; also called hALPPL2
T3 chain: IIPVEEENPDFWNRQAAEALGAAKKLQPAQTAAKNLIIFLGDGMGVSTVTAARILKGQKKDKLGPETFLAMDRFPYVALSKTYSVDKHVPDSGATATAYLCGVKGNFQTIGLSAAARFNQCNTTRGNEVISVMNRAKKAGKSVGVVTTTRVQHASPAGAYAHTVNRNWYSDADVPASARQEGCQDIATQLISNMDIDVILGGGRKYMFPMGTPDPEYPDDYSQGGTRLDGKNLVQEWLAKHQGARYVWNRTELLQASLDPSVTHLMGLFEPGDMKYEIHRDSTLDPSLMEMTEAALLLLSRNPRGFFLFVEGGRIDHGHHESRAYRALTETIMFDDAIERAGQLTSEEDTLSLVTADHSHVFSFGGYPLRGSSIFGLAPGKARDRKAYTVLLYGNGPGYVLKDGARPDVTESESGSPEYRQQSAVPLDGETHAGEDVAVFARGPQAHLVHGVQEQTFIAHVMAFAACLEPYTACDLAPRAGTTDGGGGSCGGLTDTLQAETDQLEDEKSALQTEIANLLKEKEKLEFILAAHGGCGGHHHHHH
The experiment in a line: BLI, antigen immobilised. As to the method:
(§4) Binding kinetics were determined using the Biolayer Interferometry (BLI) Octet K2 system (Sartorius). […] All assays were conducted in PBS with a plate temperature of 25° C. Ka (M⁻¹s⁻¹), Kd (s⁻¹) and KD (nM) values were determined using Octet Data Analysis High Throughput software (ForteBio) for Biolayer Interferometry.
On the technique in general: Biolayer interferometry detects binding as a change in optical thickness at a sensor tip.

In assay [6] the target is T4, Human ALPP (leucine zipper) (human).
T4 construct: Whole entry: ALPP fused with a cysteine stabilised leucine zipper and His tag; also called hALPP
T4 chain: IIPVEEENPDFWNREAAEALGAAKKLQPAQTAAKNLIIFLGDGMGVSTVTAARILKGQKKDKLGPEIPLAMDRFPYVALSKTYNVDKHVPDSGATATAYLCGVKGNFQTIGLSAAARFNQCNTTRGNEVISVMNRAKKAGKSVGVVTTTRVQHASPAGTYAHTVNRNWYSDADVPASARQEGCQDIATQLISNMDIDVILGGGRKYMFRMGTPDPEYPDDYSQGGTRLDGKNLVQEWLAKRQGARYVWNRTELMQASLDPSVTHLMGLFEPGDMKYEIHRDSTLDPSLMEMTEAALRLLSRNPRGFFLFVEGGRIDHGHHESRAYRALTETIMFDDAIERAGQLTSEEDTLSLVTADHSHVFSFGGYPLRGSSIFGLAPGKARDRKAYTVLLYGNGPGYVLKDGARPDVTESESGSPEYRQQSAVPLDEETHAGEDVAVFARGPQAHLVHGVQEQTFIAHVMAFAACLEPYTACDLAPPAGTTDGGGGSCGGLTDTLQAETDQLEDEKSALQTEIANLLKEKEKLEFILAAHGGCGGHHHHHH
Description: BLI, antigen immobilised. How it is done: as §4

Assay [7] addresses T2, human ALPPL2 on CHO cells. The experiment in a line: flow cytometry, CHO cells stably expressing human ALPPL2; PDC detected with FITC anti-human Ab. How it is done: (§5) Biparatopic VHH-hFc drug conjugates were assessed for human ALPP, ALPPL2, ALPI and ALPL cell-surface binding by flow cytometry. Binders were screened on CHO cells stably expressing human ALPP, ALPPL2, ALPI or ALPL.
Cell surface binding of test agents to hALPP isoforms was characterized in four CHO-ALPP isoform transfectant cell lines (CHO-ALPP, CHO-ALPPL2, CHO-ALPI and CHO-ALPL) and the resulting KDapp values determined. Adherent cells were detached from tissue culture flasks by incubating with 0.1% EDTA/PBS solution at 37° C. for […] or until cells detached easily. Cells were re-suspended in ice-cold PBS/2% FCS in 15 ml tubes and centrifuged at 1700 rpm for 5 mins at 4° C. Supernatant was removed and the cell pellet re-suspended in PBS/2% FCS. […] Cells were incubated with 100 μl of test agents at a range of concentrations, plus controls for 1 hr on ice. The sample plate was centrifuged at 1700 rpm for 5 mins at 4° C. The supernatant was removed, and a wash performed by re-suspending the cell pellets in 0.25 mL of ice-cold PBS/2% FCS using a multichannel pipette. Samples were again centrifuged at 1700 rpm for 5 min at 4° C. Supernatant was removed and two further washes performed as described. […] Binding of VHH-hFc agents was determined by adding 100 μl of Fitc-anti-human Ab (ThermoFisher) and incubating for 30 mins on ice in the dark. […]

Assay [8] deals with T5, human ALPL on CHO cells (human, UniProt P05186 18-501).
T5 construct: whole, on cells; also called CHO-ALPL
T5 sequence (looked up): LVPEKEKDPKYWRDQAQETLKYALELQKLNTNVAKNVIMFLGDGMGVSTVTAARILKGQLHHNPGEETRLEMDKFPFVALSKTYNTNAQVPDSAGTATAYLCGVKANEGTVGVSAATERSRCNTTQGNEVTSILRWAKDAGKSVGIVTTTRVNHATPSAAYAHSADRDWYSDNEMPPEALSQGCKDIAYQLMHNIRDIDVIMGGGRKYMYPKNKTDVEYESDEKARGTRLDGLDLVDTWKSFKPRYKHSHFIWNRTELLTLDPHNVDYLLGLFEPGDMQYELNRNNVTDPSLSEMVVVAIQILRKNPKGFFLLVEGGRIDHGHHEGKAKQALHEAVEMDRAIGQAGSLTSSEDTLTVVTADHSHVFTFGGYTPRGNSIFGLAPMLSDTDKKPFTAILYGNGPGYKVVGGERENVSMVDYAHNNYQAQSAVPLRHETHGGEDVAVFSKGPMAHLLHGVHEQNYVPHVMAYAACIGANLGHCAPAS
The experiment in a line: flow cytometry, CHO cells stably expressing human ALPL; PDC detected with FITC anti-human Ab. As to the method: as §5
Cell surface binding of test agents to hALPP isoforms was characterized in four CHO-ALPP isoform transfectant cell lines (CHO-ALPP, CHO-ALPPL2, CHO-ALPI and CHO-ALPL) and the resulting KDapp values determined. Adherent cells were detached from tissue culture flasks by incubating with 0.1% EDTA/PBS solution at 37° C. for […] or until cells detached easily. Cells were re-suspended in ice-cold PBS/2% FCS in 15 ml tubes and centrifuged at 1700 rpm for 5 mins at 4° C. Supernatant was removed and the cell pellet re-suspended in PBS/2% FCS. […] Cells were incubated with 100 μl of test agents at a range of concentrations, plus controls for 1 hr on ice. The sample plate was centrifuged at 1700 rpm for 5 mins at 4° C. The supernatant was removed, and a wash performed by re-suspending the cell pellets in 0.25 mL of ice-cold PBS/2% FCS using a multichannel pipette. Samples were again centrifuged at 1700 rpm for 5 min at 4° C. Supernatant was removed and two further washes performed as described. After the final wash and centrifugation step, excess liquid was removed by blotting the plate on tissue paper. Binding of VHH-hFc agents was determined by adding 100 μl of Fitc-anti-human Ab (ThermoFisher) and incubating for 30 mins on ice in the dark. Wash steps were performed as described previously. All cell pellets were finally re-suspended in 0.28 ml of ice-cold PBS/2% FCS and left on ice in the dark prior to analysis on a Merck-Millipore Guava EasyCyte HT or Thermo Fisher Attune N×T flow cytometer.

B1: B01 His (VHH, not shown: small tags and cut ends)
VHH: QVQLVESGGGLVQAGGSLRLSCEVTRSPMPIDTMAWYRQAPGRQRELVAIISRSGSTNYADSVKGRFTISRNDTKSTMYKSTMYLKMNTLELEDTGVYYCNAVGLWNGAEYWGQGTQVTVSS
B1: the Kd in assay [1] was found to be 5.3 nM; in assay [2] it was 5 nM; in assay [5] it was 0.29 nM; in assay [6], 1.18 nM. Also, the “EC50 (read off the curve)” value in assay [3] and in assay [4] was ~5 nM throughout. The koff in assay [5] amounted to 0.00014 s⁻¹; in assay [6] it was 0.000191 s⁻¹. For the same molecule, the kon in assay [5] came out at 482000 M⁻¹ s⁻¹; in assay [6] it was 162000 M⁻¹ s⁻¹.

B2: D10-A06 hFc-vcPAB-MMAE [G4S]3 (Fc fusion, DAR 4)
chain 1: QVQLVESGGGLVQPGGSLRLSCAASGSIFSVNTMGWYRQAPGKQRDLVAVATSGGTIHYADSVKGRFTISRDNAKNTVYLQMNSLKPEDTAVYYCNLVVPYGMIAGDHDYWGQGTKVTVSSGGGGSGGGGSGGGGSEPKSSDKTHTCPPCPAPELLGGPCVFLFPPKPKDTLMISRTPEVTCVVVDVSHEDPEVKFNWYVDGVEVHNAKTKPREEQYNSTYRVVSVLTVLHQDWLNGKEYKCKVSNKALPAPIEKTISKAKGQPREPQVYTLPPSRDELTKNQVSLYCLVKGFYPSDIAVEWESNGQPENNYKTTPPVLDSDGSFFLYSKLTVDKSRWQQGNVFSCSVMHEALHNHYTQKSLCLSPGK
chain 2: QVHLVESGGGLVQAGGSLRLSCAASGRTFLSMGWFRQAPGKEREFVAAISWTGGSTGYADSVKGRFTISRESDKETMYLQMNSLKPEDTAVYYCAARGDVYYGGDDATRYKYWGQGTQVTVSSGGGGSGGGGSGGGGSEPKSSDKTHTCPPCPAPELLGGPCVFLFPPKPKDTLMISRTPEVTCVVVDVSHEDPEVKFNWYVDGVEVHNAKTKPREEQYNSTYRVVSVLTVLHQDWLNGKEYKCKVSNKALPAPIEKTISKAKGQPREPQVYTLPPSRDELTKNQVSLTCLVKGFYPSDIAVEWESNGQPENNYKTTPPVLDSDGSFFLTSKLTVDKSRWQQGNVFSCSVMHEALHNHYTQKSLCLSPGK
modifications: MC-vc-PAB-MMAE on Cys 239 and Cys 442 (EU numbering)
notes: Biparatopic drug conjugate, DAR 4; also called #633
Consider B2, for which, in assay [7], the “EC50 (read off the curve)” value is ~5 nM. Moreover, in assay [8], the binding result is given as “no binding (tested: 350 nM)”.
